Measurements reported in the supplement of paper PMC9112550, “Optimization of the antimicrobial peptide Bac7 by deep mutational scanning” (BMC Biology, 2022).

test system: Escherichia coli TOP10; test: shrunken log2 fold change of peptide-encoding DNA abundance (4.5 h post-induction vs induction); higher = less antimicrobial activity (less host growth inhibition); conditions: time post-induction: 4.5 h; library: site-saturation at positions 5, 18, 19, 20
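Also: peptides expressed intracellularly from a pBAD plasmid library in pooled LB shake-flask culture, induced with 0.3% L-arabinose, DNA abundance read by NGS, three biological replicates, DESeq2 with apeglm shrinkage.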

| Sequence | shrunken log2 fold change |
| --- | --- |
| RRIRFRPPRLPRPRPRPELGPRP | 0.144 |
| RRIRQRPPRLPRPRPRPIKDPRP | -0.034 |
| RRIRMRPPRLPRPRPRPWTPPRP | 0.28 |
| RRIRFRPPRLPRPRPRPPPVPRP | 1.43 |
| RRIRWRPPRLPRPRPRPTDFPRP | -0.149 |
| RRIRCRPPRLPRPRPRPCVHPRP | -0.0561 |
| RRIRPRPPRLPRPRPRPVFPPRP | 0.181 |
| RRIRHRPPRLPRPRPRPDMEPRP | -0.336 |
| RRIRHRPPRLPRPRPRPYDDPRP | -0.00822 |
| RRIRQRPPRLPRPRPRPHVFPRP | -0.000919 |
| RRIRQRPPRLPRPRPRPSNTPRP | -0.824 |
| RRIRHRPPRLPRPRPRPSVMPRP | -0.19 |
| RRIRTRPPRLPRPRPRPGCSPRP | 0.0133 |
| RRIRIRPPRLPRPRPRPHALPRP | -0.127 |
| RRIRRRPPRLPRPRPRPHPEPRP | 0.0463 |
| RRIRQRPPRLPRPRPRPIFEPRP | -0.224 |
| RRIRGRPPRLPRPRPRPLILPRP | 0.203 |
| RRIRRRPPRLPRPRPRPQADPRP | 0.312 |
| RRIRMRPPRLPRPRPRPRGNPRP | 0.37 |
| RRIRDRPPRLPRPRPRPVVIPRP | 2.82 |
| RRIRYRPPRLPRPRPRPNADPRP | -0.0823 |
| RRIRNRPPRLPRPRPRPMWLPRP | 0.0773 |
| RRIRERPPRLPRPRPRPHVIPRP | -0.133 |
| RRIRRRPPRLPRPRPRPSPLPRP | 0.479 |
| RRIRGRPPRLPRPRPRPFFQPRP | 0.103 |

| Sequence | shrunken log2 fold change |
| --- | --- |
| RRIRNRPPRLPRPRPRPCAAPRP | 0.0594 |
| RRIRKRPPRLPRPRPRPDSGPRP | -0.00213 |
| RRIRQRPPRLPRPRPRPILKPRP | 0.14 |
| RRIRCRPPRLPRPRPRPRCPPRP | 0.418 |
| RRIRGRPPRLPRPRPRPAHSPRP | 0.0755 |
| RRIRSRPPRLPRPRPRPLEQPRP | 0.0284 |
| RRIRDRPPRLPRPRPRPCLDPRP | -0.0178 |
| RRIRWRPPRLPRPRPRPEQDPRP | -0.0232 |
| RRIRQRPPRLPRPRPRPGLPPRP | 0.242 |
| RRIRARPPRLPRPRPRPNQHPRP | -0.124 |
| RRIRQRPPRLPRPRPRPHQPPRP | 0.00524 |
| RRIRQRPPRLPRPRPRPDRKPRP | -0.085 |
| RRIRTRPPRLPRPRPRPMGGPRP | -0.0576 |
| RRIRNRPPRLPRPRPRPVTEPRP | -0.0551 |
| RRIRNRPPRLPRPRPRPWPWPRP | 0.0162 |
| RRIRLRPPRLPRPRPRPIDAPRP | 0.206 |
| RRIRGRPPRLPRPRPRPRLGPRP | 0.799 |
| RRIRWRPPRLPRPRPRPGYCPRP | -0.407 |
| RRIRLRPPRLPRPRPRPTWMPRP | -0.0614 |
| RRIRGRPPRLPRPRPRPHMWPRP | -0.0527 |
| RRIRPRPPRLPRPRPRPPCGPRP | 0.254 |
| RRIRIRPPRLPRPRPRPSGPPRP | -0.21 |
| RRIRCRPPRLPRPRPRPPFSPRP | 0.236 |
| RRIRIRPPRLPRPRPRPILVPRP | 0.0273 |
| RRIRDRPPRLPRPRPRPYEQPRP | -0.0135 |

| Sequence | shrunken log2 fold change |
| --- | --- |
| RRIRKRPPRLPRPRPRPINDPRP | -0.48 |
| RRIRVRPPRLPRPRPRPEGKPRP | 0.217 |
| RRIRPRPPRLPRPRPRPLFYPRP | -0.383 |
| RRIRPRPPRLPRPRPRPFVFPRP | -0.2 |
| RRIRPRPPRLPRPRPRPDLTPRP | 0.168 |
| RRIRFRPPRLPRPRPRPENRPRP | -0.0215 |
| RRIRARPPRLPRPRPRPCTSPRP | 0.0117 |
| RRIRNRPPRLPRPRPRPTAIPRP | -0.072 |
| RRIRKRPPRLPRPRPRPDYVPRP | -0.0105 |
| RRIRRRPPRLPRPRPRPGRSPRP | -0.104 |
| RRIRFRPPRLPRPRPRPCTGPRP | 0.0368 |
| RRIRVRPPRLPRPRPRPAQCPRP | -0.0313 |
| RRIRGRPPRLPRPRPRPHRFPRP | 0.101 |
| RRIRCRPPRLPRPRPRPSADPRP | 0.0289 |
| RRIRFRPPRLPRPRPRPLGAPRP | 0.312 |
| RRIRSRPPRLPRPRPRPWPMPRP | -0.111 |
| RRIRERPPRLPRPRPRPTPFPRP | -0.211 |
| RRIRNRPPRLPRPRPRPYDYPRP | -0.129 |
| RRIRWRPPRLPRPRPRPRLDPRP | 0.459 |
| RRIRERPPRLPRPRPRPAKTPRP | -0.244 |
| RRIRERPPRLPRPRPRPHHPPRP | -0.197 |
| RRIRARPPRLPRPRPRPNPWPRP | 0.222 |
| RRIRVRPPRLPRPRPRPCNGPRP | 0.00489 |
| RRIRRRPPRLPRPRPRPENWPRP | 0.153 |
| RRIRWRPPRLPRPRPRPQIQPRP | -0.0544 |
